B1: Voltage-dependent calcium channel gamma-2 subunit (Homo sapiens), Q9Y698 (parent)
chain: MGLFDRGVQMLLTTVGAFAAFSLMTIAVGTDYWLYSRGVCKTKSVSENETSKKNEEVMTHSGLWRTCCLEGNFKGLCKQIDHFPEDADYEADTAEYFLRAVRASSIFPILSVILLFMGGLCIAASEFYKTRHNIILSAGIFFVSAGLSNIIGIIVYISANAGDPSKSDSKKNSYSYGWSFYFGALSFIIAEMVGVLAVHMFIDRHKQLRATARATDYLQASAITRIPSYRYRYQRRSRSSSRSTEPSHSRDASPVGIKGFNTLPSTEISMYTLSRDPLKAATTPTATYNSDRDNSFLQVHNCIQKENKDSLHSNTANRRTTPV

Variants of: B1
Conditions: with gria1_rat Gria1, P19490
gria1_rat Gria1, P19490, sequence (P19490 whole entry): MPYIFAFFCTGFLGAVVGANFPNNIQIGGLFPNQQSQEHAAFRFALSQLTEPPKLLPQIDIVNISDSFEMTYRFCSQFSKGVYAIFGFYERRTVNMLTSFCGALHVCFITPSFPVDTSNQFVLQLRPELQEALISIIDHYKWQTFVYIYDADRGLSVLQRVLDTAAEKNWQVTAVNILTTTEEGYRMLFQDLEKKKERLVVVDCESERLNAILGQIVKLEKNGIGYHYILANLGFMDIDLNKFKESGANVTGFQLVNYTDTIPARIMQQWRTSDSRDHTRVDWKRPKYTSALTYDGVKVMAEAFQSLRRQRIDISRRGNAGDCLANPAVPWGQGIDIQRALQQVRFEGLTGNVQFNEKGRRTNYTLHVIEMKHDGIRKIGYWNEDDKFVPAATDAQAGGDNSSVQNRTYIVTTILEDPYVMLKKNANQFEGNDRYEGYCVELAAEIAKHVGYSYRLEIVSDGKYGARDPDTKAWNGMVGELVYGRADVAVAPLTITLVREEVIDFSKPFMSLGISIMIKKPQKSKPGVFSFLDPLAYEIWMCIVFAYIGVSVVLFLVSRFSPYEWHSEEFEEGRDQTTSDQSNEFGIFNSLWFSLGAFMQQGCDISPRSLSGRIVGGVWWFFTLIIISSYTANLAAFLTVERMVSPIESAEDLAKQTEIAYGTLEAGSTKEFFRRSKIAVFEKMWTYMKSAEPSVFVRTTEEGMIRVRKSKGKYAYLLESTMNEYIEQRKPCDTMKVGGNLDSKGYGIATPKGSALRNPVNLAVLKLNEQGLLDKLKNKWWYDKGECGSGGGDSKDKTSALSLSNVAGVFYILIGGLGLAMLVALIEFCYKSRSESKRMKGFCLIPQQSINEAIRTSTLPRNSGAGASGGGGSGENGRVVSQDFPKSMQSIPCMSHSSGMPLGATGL

Variant	effect of a mutation on the interaction
MGLFDRGVQMLLTTVGAFAAFSLMTIAVGTDYWLYSRGVCKTKSVSENETSKKNEEVMTHSGLWRTCCLEGNFKGLCKQIDHFPEDADYEADTAEYFLRAVRASSIFPILSVILLFMGGLCIAASEFYKTRHNIILSAGIFFVSAGLSNIIGIIVYISANAGDPSKSDSKKNSYSYGWSFYFGALSFIIAEMVGVLAVHMFIDRHKQLRATARATDYLQASAITRIPSYRYRYQRRSRSSSRSTEPSHSRDASPVGIKGFNTLPSTEISMYTLSRDPLKAATTPTATYNSDRDNSFLQVHNSIQKENKDSLHSNTANRRTTPV [C302S]	decreasing interaction

From IntAct's records for PubMed 19805317
